No end group written: not given here.
T1: biotinylated human PAMP (biotinylated to an added N-terminal cysteine) (human, not fully specified; biotin on the added N-terminal cysteine; C-terminal amide)
T1 construct: also called biotin-PAMP; biotinylated human full-length PAMP
T1 peptide: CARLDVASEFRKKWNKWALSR

B1: human PAMP (13-20) (peptide)
peptide: WNKWALSR
modifications: ends and bridges not checked
notes: also called N-terminally truncated human PAMP, residues 13-20; C-terminal-most 8 residues of PAMP
B2: human PAMP (8-20) (peptide)
peptide: EFRKKWNKWALSR
modifications: ends and bridges not checked
notes: also called N-terminally truncated human PAMP, residues 8-20
B3: human PAMP (12-20) (peptide)
peptide: KWNKWALSR
modifications: not fully specified (C-terminus); ends and bridges not checked
notes: also called N-terminally truncated human PAMP, residues 12-20
B4: monoclonal antibody EGX-P-E9 (antibody, V domains shown)
VH: EVQLQQSGAELVRSGASVKLSCTASGFNIKDYYIHWVKQGPEQGLEWVGYIDPENGETAYAPKFQGKATLTADTSSNTAYLQLISLTSEDTAVYYCNAPYFSLGRNYWGQGTTLTVSS
VL: NVLMTQTPLSLPVSLGDQASISCRSSQSIVHGNGDTYLEWYLQKPGQSPKLLIYKVSNRFSGVPDRFSGSGSGTDFTLKIRRVEAEDLGVYYCFQGSHVPLTFGAGTKLELK
notes: Mouse IgG purified from hybridoma medium with Protein G; also called anti-PAMP EGX-P-E9 IgG; antibody of hybridoma clone PTA-7958
B5: human PAMP (10-20) (peptide)
peptide: RKKWNKWALSR
modifications: ends and bridges not checked
notes: also called N-terminally truncated human PAMP, residues 10-20
B6: native (non-biotinylated) human PAMP (peptide)
peptide: ARLDVASEFRKKWNKWALSR-NH2
notes: also called human full length PAMP; hum FL

What was measured:
[1] = target: B4; experiment: competitive ELISA: EGX-P-E9-coated wells, 10 nM biotinylated human full-length PAMP plus 1 µM (100x) unlabeled competitor peptide, streptavidin-peroxidase, OD
Protocol: (§1) The activity of the purified monoclonal antibody EGX-P-E9 was examined by ELISA (Enzyme Linked Immunosorbent Assay, FIG. 1). Wells of a 96-well microtiter plate were coated with 5 μg/ml anti-PAMP EGX-P-E9 IgG diluted in PBS for several hours. After washing wells with PBS, the coated wells were then incubated with a skim milk-PBS solution (Milk/PBS) to block non-specific antigen-binding. To determine the EC50, an estimate of the dissociation constant, various concentration (12 μM to 2 μM in Milk/PBS) of biothinylated human PAMP (biotinylated to an added N-terminal cysteine) was incubated in EGX-P-E9-coated wells. After washing wells with PBS+0.05% Tween 20 (PBST), the EGX-P-E9-biotin-PAMP complex was captured by the streptavidin-peroxidase conjugate and quantified by measuring the A450 using the peroxidase substrate TMB fluorescent reagent (Sigma Aldrich) and Benchmark microplate reader (BioRad).
The specificity of anti-PAMP EGX-P-E9 was also tested by ELISA with competitor PAMP peptides (FIG. 2). Antibody EGX-P-E9-coated wells were loaded with 10 nM biotinylated human full-length PAMP in Milk/PBS supplemented with one hundred fold excess (1 μM) of the following unlabeled competitor PAMP peptides: Rat PAMP, mouse PAMP, human full length PAMP (hum FL), and various N-terminally truncated human PAMPs (containing only residues 8-20, 10-20, 12-20 or 13-20). Quantification of the EGX-P-E9-biotin-PAMP complex was done as described above.

human PAMP (13-20) = target: B1; experiment: competition ELISA with truncated PAMP peptides
Protocol: as §1
The specificity of anti-PAMP EGX-P-E9 was also tested by ELISA with competitor PAMP peptides (FIG. 2). […] Quantification of the EGX-P-E9-biotin-PAMP complex was done as described above.

[2] = target: T1, biotinylated human PAMP (biotinylated …); experiment: ELISA, antibody-coated wells, titration of biotinylated human PAMP, streptavidin-peroxidase detection
Protocol: as §1

[3] = target: B4; experiment: competition ELISA, non-biotinylated PAMP against 6.2 nM biotinylated PAMP on EGX-P-E9-coated wells
Protocol: as §1
To confirm the affinity for PAMP, IC50 values were determined by competing the binding of the EGX-P-E9 antibody to the biotinylated PAMP with native (non-biotinylated) human PAMP. […] After washing the wells with PBST, the EGX-P-E9-biotin-PAMP complex was detected using the streptavidin-peroxidase conjugate and quantified by measuring the A450 using the peroxidase substrate TMB fluorescent reagent (Sigma Aldrich) and Benchmark microplate reader (BioRad) as above.

binding result [1]	Binder	other results
binds	B1	
binds	B2	
binds	B3	
binds	ARLDTSSQFRKKWNKWALSR-NH2 [Rat PAMP]	
	B4	binding result (human PAMP (13-20)): binds; EC50 [2]: 6.2 nM
binds	B5	
binds	AGPDTPSQFRKKWNKWALSR-NH2 [mouse PAMP]	
	B6	IC50 [3]: 4 nM

Source: patent US20110301332A1 (CEPHALON AUSTRALIA VIC, published 2011)
